We go through 15 molecules from patent US20210139605A1 (AGENCY FOR SCIENCE TECHNOLOGY AND RESEARCH, published 2021).

The target in assay [1] is T1, human HER-2 protein (soluble / recombinant, used in SPR) (human, UniProt P04626 23-652).
T1 construct: also called immobilized HER2 protein; recombinant HER-2
Kind of assay: SPR.

Assay [2] addresses T2, EGFR (UniProt P00533 25-645, limits assumed).
T2 construct: also called HER1
Kind of assay: SPR, EGFR immobilised on the chip, antibody flowed; concentration not given [panel P1F1]. The text has this: (§1) In order to assess the specificity of the binding, molecules closely related to HER-2 were also used as bound antigens, namely EGFR and HER-3.

Assay [3] has as its target T3, HER-3 (UniProt P21860 20-643, limits assumed). The assay is described as follows: SPR, HER-3 immobilised on the chip, antibody flowed; concentration not given [panel P1F1].
Text: as §1

Assay [4] addresses T2, EGFR. The assay is described as follows: SPR, EGFR immobilised on the chip, antibody flowed; concentration not given [panel P1A3].
Text: as §1

For assay [5], the target named is T3, HER-3. Kind of assay: SPR, HER-3 immobilised on the chip, antibody flowed; concentration not given [panel P1A3].
Text: as §1

The target in assay [6] is T1, human HER-2 protein (soluble / …). Kind of assay: SPR, immobilized HER2 protein. A general note: Surface plasmon resonance follows binding to a sensor surface in real time, without labels.
For assay [7] the target is unchanged. The assay is described as follows: SPR, human HER2 immobilised, Fab flown, 1:1 Langmuir model. Here is the method: Rate constants of association, dissociation (kₐ, kd) and the equilibrium dissociation constants (KD) were determined for anti-HER2 Fab molecules. Human HER2 protein (50 μg/mL) was immobilised on the SPR sensor chip and was exposed to five different concentrations of each Fab in 2- or 3-fold dilutions over the flow cells. 1:1 Langmuir model was used to derive the constants.

The target of assay [8] is T2, EGFR. Kind of assay: SPR, EGFR immobilised on the chip, antibody flowed; concentration not given [panel P1E4].
Text: as §1

Assay [9] concerns the target T3, HER-3. The assay is described as follows: SPR, HER-3 immobilised on the chip, antibody flowed; concentration not given [panel P1E4].
Text: as §1

Assay [10] deals with T2, EGFR. Kind of assay: SPR, EGFR immobilised on the chip, antibody flowed; concentration not given [panel P1C5].
Text: as §1

Assay [11] concerns the target T3, HER-3. Kind of assay: SPR, HER-3 immobilised on the chip, antibody flowed; concentration not given [panel P1C5].
Text: as §1

T3 sequence (P21860 20-643 limits assumed): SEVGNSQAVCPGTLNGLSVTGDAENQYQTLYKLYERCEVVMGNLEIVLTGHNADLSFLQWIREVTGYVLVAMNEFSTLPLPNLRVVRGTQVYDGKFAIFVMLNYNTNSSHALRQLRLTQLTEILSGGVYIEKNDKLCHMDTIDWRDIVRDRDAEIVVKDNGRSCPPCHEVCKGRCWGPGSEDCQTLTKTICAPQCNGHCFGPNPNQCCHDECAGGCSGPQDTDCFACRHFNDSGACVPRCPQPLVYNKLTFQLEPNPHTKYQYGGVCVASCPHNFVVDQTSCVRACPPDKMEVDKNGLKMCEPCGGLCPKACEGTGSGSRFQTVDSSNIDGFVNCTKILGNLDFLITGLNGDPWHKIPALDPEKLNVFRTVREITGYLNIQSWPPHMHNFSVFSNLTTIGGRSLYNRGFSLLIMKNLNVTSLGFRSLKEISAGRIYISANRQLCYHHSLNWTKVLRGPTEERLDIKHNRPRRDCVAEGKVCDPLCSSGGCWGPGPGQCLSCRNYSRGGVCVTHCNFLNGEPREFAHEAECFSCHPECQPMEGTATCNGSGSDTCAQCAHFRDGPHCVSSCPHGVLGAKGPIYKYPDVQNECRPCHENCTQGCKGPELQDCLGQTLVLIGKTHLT

B1: P1F1 antibody (antibody, V domains shown)
VH: QVQLVESGPGLVKPSGTLSLTCAVSGGSISSSNWWSWVRQPPGKGLEWIGEIYHSGSTNYNPSLKSRVTISVDTSKNQFSLKLSSVTAADTAVYYCARMGANSGGYLYGMDVWGQGTTVTVSS
VL: QTVVTQEPSFSVSPGGTVTLTCGLSSGSVSTSYYPSWYQQTPGQAPRTLIYSTNTRSSGVPDRFSGSILGNKAALTITGAQADDESDYYCVLYMGSGIWVFGGGTKLTVLG
As usually defined, the Kd is the free concentration of one partner at which half of the binding sites on the other are occupied at equilibrium, for simple one-to-one binding. Turning to B1, in assay [1], the Kd worked out at 11.6 nM. The binding result with EGFR [2] and in the assay with HER-3 [3] was “no binding” each time.

B2: P1A3 antibody (antibody, V domains shown)
VH: EVQLVQSGTEVKKPGASVRVSCKSSGYTFTSYYIHWVRQAPGQGLEWMAIINPGNGDTNYAQRFQGRVTMTRDTSTSTVYMELRSLRSDDTAVYFCAREIASYSGSYYDYWGQGTLVTVSS
VL: QAVVTQEPSLSVSPGGTVTLTCGLSSGSVSTGHYASWYQQTPGQAPRTLFYNTNTRSSGVPDRFSGSIVGNKAALTITGAQADDESDYYCVLYVGDGIWVFGGGTKLTVLG
For B2, in assay [1], the dissociation constant (Kd) amounted to 21.4 nM. Further, the binding result with EGFR [4] and with HER-3 [5] was “no binding” in each case.

B3: PFG3 Fab (Fab, V domains shown)
VH: EVQLVQSGAEVKKPGTSVTVSCRASGFTFSDYYIHWVRQAPGQGLEWMGWVSAYNGDTNYAQKFQGRVTVTTDTSTSTAYMELRSLRSDDTAVYFCAREIASYSGSYYDYWGQGTLVTVSS
VL: QAVVLQEPSFSVSPGGTVTLTCGLTSGAVSSSYYPSWYQQTPGQAPRTLIYNTDIRFSGVPDRFSGSILGNKAALTITGAQADDESDYYCVLYMGSGISVFGGGTKLTVLG
notes: Printed entries run through CL and CH1 (Fab chains); Label G3 tied to PFG3 by inference
As a reminder, the koff is the first-order rate constant of dissociation. Usually kon stands for the second-order rate constant of association. Take B3: the koff in assay [6] was determined as 0.0158 s⁻¹. In addition, in [7], the Kd came out at 183 nM, the koff turned out to be 0.019 s⁻¹ and the kon was found to be 108000 M⁻¹ s⁻¹.

B4: P1E4 antibody (antibody, V domains shown)
VH: QVQLQQWGAGLLKPSETLSLTCAVYGGSFSGYYWSWIRQPPGKGLEWIGEINHSGSTNYNPSLKSRVTISVDTSKNQFSLKLSSVTTADTAVYYCARMGINSGGYLYGMDVWGQGTTVTVSS
VL: QTVVTQEPSFSVSPGGTVTLTCGLSSGSVSTSYYPSWYQQIPGQAPRTLIYTTNIRSSGVPDRFGGSILGNKAALTITGAQAEDESDYYCMLYMGSGIWVFGGGTKLTVLG
Regarding B4, in assay [1], the Kd was found to be 5.3 nM. For the same molecule, the binding result with EGFR [8] and in the assay with HER-3 [9] was “no binding” each time.

B5: P1C5 antibody (antibody, V domains shown)
VH: QVQLQESGPGLVKPSETLSLTCTVSGGSISSSSYYWGWIRQPPGKGLEWIGSIYYSGSTYYNPSLKSRVTISVDTSKNQFSLKLSSVTAADTAVYYCARYAPDSSGYLVAFDIWGQGTMVTVSS
VL: QTVVTQEPSFSVSPGGTVTLTCGLSSGSVSTGYYPSWYQQTPGQAPRTLIYSTNSRSSGVPDRFSGSILGNKAALTITGAQADDESDYYCVLYMGSGISVFGGGTKLTVLG
Turning to B5, in assay [1], the Kd turned out to be 12.7 nM. Moreover, the binding result in the assay with EGFR [10] and in the assay with HER-3 [11] was “no binding” in each case.

B6: PFF5 Fab (Fab, V domains shown)
VH: QVQLQESGPGLVKPSETLSLTCTVSGGSISSSSYYWGWIRQPPGKGLEWIGSIYYSGSTYYNPSLKSRVTISVDTSKNQFSLRLSSVSAADTAVYYCARYAPDSSGYLVAFDIWGQGTMVTVSS
VL: QAVVIQEPSFSVSPGGTVTLTCGLSSGSVSTTYYPSWYQQTPGQAPRTLIYSTNTRSSGVPDRFSGSILGNKAALTITGAQADDESDYYCVLYMGNGISVFGGGTKLTVLG
Turning to B6, the koff in assay [6] was found to be 0.0141 s⁻¹. Besides, in [7], the Kd turned out to be 305 nM, the off-rate (koff) was 0.014 s⁻¹ and the association rate constant (kon) was 44500 M⁻¹ s⁻¹.

B7: PFA5 Fab (Fab, V domains shown)
VH: QVQLVQSGAEVKKPGASVKVSCKASGYTFTSYAMHWVRQAPGQRLEWMGWINAGNGNTKYSQKFQGRVTITRDTSASTAYMELSSLRSEDTAVYYCARGGYLVGYWGQGTLVTVSS
VL: not shown
notes: Printed entries run through CL and CH1 (Fab chains); Label A5 tied to PFA5 by inference
Take B7: the koff in assay [6] was 0.00326 s⁻¹.

B8: PFB3 Fab (Fab, V domains shown)
VH: QVQLQESGGGLVQPGGSLRLSCAASGFTFSSYAMSWVRQAPGKGLEWVSAISGSGGSTYYADSVKGRFTISRDNSKNTVYLQMNSLRAEDTAVYYCARTYYDFWSGRVGAFDIWGQGTTVTVSS
VL: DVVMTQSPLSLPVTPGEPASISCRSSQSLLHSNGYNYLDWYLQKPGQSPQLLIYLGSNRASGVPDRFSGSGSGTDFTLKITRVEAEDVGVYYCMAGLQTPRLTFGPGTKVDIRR
notes: Printed entries run through CL and CH1 (Fab chains); Label B3 tied to PFB3 by inference
Consider B8, for which the koff in assay [6] came out at 0.0102 s⁻¹.

B9: PFA4 Fab (Fab, V domains shown)
VH: EVQLVQSGGGVVQPGRSLRLSCAASGFTFSSYAMHWVRQAPGKGLEWVAVISYDGSNKYYADSVKGRFTISRDNSKNTLYLQMNSLRAEDTAVYYCARSRGYYGMDVWGQGTTVTVSS
VL: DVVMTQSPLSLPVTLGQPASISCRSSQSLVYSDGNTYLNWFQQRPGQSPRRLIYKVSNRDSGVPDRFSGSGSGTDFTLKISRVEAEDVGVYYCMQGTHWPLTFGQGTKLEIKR
notes: Printed entries run through CL and CH1 (Fab chains); Label A4 tied to PFA4 by inference
For B9, in assay [6], the koff came to 0.0196 s⁻¹. In [7], the Kd worked out at 20.5 nM, the koff worked out at 0.042 s⁻¹ and the kon was 2.03e+06 M⁻¹ s⁻¹.

B10: PFB4 Fab (Fab, V domains shown)
VH: EVQLVQSGGGVVQPGRSLRLSCAASGFTFSSYGMHWVRQAPGKGLEWVAVISYDGSNKYYADSVKGRFTISRDDSKNTLYLQMNSLRAEDTAVYYCAKDRGYYGMDVWGQGTTVTVSS
VL: QAVVIQEPSLTVSPGGTVTLTCGSTTGAVTSGHYPSWFQQKPGQAPRALIYSTSNKHSWTPARFSGSLLGGKAALTLSGVQPEDEAEYYCLLYYGGARVFGGGTKLTVLG
notes: Printed entries run through CL and CH1 (Fab chains); Label B4 tied to PFB4 by inference
B10: the koff in assay [6] was 0.0322 s⁻¹. Moreover, in assay [7], the Kd was 17.6 nM, the koff was 0.078 s⁻¹ and the kon came to 4.41e+06 M⁻¹ s⁻¹.

B11: PFE1 Fab (Fab, V domains shown)
VH: EVQLVQSGGGVVQPGRSLRLSCAASGFTFSSYAMHWVRQAPGKGLEWVAVISYDGSNKYYADSVKGRFTISRDNSKNTLYLQMNSLRAEDTAVYYCARSRGYYGMDVWGQGTTVTVSS
VL: DVVMTQSPLSLPVTLGQPASISCTSSQSLVYSDGNTYLNWFQQRPGQSPRRLIYKVSKRDSGVPDRFSGSGSGTDFTLKISRVEAEDVAIYYCMQGTHWPLTFGGGTKVEIKR
notes: Printed entries run through CL and CH1 (Fab chains); Label E1 tied to PFE1 by inference
Regarding B11, in [6], the koff is 0.013 s⁻¹. Moreover, in assay [7], the Kd was 16.5 nM, the koff came to 0.026 s⁻¹ and the kon came to 1.59e+06 M⁻¹ s⁻¹.

B12: PFC3 Fab (Fab, V domains shown)
VH: QVQLVQSGGGLVQPGGSLRLSCAASGFTFSSYAMSWVRQAPGKGLEWVSGINWNGGSTGYADSVKGRFTISRDNSKNTLYLQMNSLRAEDTAVYYCAKGLVPAASMDVWGQGTTVTVSS
VL: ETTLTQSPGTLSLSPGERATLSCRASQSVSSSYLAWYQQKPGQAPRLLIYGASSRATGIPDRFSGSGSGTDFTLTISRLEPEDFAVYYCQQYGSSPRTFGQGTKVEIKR
notes: Printed entries run through CL and CH1 (Fab chains); Label C3 tied to PFC3 by inference
As to B12, the koff in assay [6] was found to be 0.0528 s⁻¹. Further, in [7], the Kd was determined as 15.3 nM, the koff was 0.063 s⁻¹ and the kon is 4.11e+06 M⁻¹ s⁻¹.

B13: PFB5 Fab (Fab, V domains shown)
VH: EVQLVQSGAEVKKPGSSVKVSCKASGGTFSSYAISWVRQAPGQGLEWMGGIIPIFGTANYAQKFQGRVTITADESTSTAYMELSSLRSEDTAVYYCARGRGSGYPDTWFWFDPWGQGTLVTVSS
VL: not shown
notes: Printed entries run through CL and CH1 (Fab chains); Label B5 tied to PFB5 by inference
With B13, the koff in assay [6] worked out at 0.017 s⁻¹. Moreover, in assay [7], the equilibrium dissociation constant (Kd) worked out at 112 nM, the koff turned out to be 0.02 s⁻¹ and the kon is 176000 M⁻¹ s⁻¹.

B14: PFB1 Fab (Fab, V domains shown)
VH: QVQLQESGGGLVQPGGSLRLSCAASGFTFSSFAMNWVRQAPGKGLEWVSTIGGSGDSTFYADPVKGRFTVSRDNSKNTLYLQMNSLRAEDTAVYYCAQAYGSGGHYFFAYWGQGTLVTVSS
VL: DVVMTQSPLSLPVTPGEPASISCRSSQSLLHSNGNTYLDWYLQKPGQSPQVLIYSGSNRASGVPDRFSGSGSGTDFTLKISRVEAEDVGVYYCMQGTHWPPTFGQGTKVEIKR
notes: Printed entries run through CL and CH1 (Fab chains); Label B1 tied to PFB1 by inference
On to B14, for which, in [6], the koff is 0.00565 s⁻¹.

B15: PFB2 Fab (Fab, V domains shown)
VH: EVQLVQSGAEVKKPGASVKVSCKASGYTFTSYGISWVRQAPGEGLEWMGWISAYNGNTNYAQKLQGRVTMTTDTSTSTAYMELRSLRSDDTAVYYCARDWGSSWSDYWGQGTLVTVSS
VL: ETTLTQSPATLSLSPGERATLSCRASQSVRNNLAWYQHKPGQAPRLLIYYASTRATGIPDRFSGSGSGTDFTLTISRLEPEDFALYYCQHYGSSRTFGQGTKVEIKR
notes: Printed entries run through CL and CH1 (Fab chains); Label B2 tied to PFB2 by inference
Take B15: in assay [6], the koff is 0.000177 s⁻¹.
